Tests used:
[1] = biological target: the molecule itself; assay: SEC-MALS; E. coli MnmG alone, at all concentrations used (Supplementary Figure S2(D))
[2] = biological target: T1, MnmE (T434A and D440A) (Escherichia coli, UniProt P25522 1-454, T434A | D440A); assay: ITC; MnmE mutant in syringe, MnmG in cell
T1 sequence: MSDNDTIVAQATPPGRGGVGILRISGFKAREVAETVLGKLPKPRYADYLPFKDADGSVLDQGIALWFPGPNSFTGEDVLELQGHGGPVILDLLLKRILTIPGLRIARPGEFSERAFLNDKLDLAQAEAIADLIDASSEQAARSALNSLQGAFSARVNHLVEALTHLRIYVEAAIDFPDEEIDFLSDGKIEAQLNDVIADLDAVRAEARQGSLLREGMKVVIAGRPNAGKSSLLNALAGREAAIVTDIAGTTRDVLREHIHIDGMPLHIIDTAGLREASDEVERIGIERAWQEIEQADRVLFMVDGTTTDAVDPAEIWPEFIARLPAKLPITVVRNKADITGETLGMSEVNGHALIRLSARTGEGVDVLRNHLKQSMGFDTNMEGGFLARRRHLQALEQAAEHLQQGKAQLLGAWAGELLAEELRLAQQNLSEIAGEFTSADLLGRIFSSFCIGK

[3] = biological target: T2, MnmE (Y169A, D175A and F176A) (Escherichia coli, UniProt P25522 1-454, Y169A | D175A | F176A); assay: ITC; MnmE mutant in syringe, MnmG in cell
T2 sequence: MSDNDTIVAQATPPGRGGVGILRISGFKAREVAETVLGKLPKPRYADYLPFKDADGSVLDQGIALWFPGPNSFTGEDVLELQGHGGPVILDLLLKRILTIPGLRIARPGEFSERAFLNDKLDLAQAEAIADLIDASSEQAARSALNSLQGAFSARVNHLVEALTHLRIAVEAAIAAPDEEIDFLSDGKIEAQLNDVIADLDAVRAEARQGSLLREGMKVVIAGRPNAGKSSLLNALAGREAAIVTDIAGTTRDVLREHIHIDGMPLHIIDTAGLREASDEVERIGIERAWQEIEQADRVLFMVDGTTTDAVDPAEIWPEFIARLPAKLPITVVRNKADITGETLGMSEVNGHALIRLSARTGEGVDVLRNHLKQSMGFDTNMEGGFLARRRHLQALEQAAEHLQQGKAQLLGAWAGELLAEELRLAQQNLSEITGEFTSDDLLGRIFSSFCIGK

[4] = biological target: T3, MnmE (Y169A, D175A and F176A) with additional S153A (Escherichia coli, UniProt P25522 1-454, S153A | Y169A | D175A | F176A); assay: ITC; MnmE mutant in syringe, MnmG in cell
T3 sequence: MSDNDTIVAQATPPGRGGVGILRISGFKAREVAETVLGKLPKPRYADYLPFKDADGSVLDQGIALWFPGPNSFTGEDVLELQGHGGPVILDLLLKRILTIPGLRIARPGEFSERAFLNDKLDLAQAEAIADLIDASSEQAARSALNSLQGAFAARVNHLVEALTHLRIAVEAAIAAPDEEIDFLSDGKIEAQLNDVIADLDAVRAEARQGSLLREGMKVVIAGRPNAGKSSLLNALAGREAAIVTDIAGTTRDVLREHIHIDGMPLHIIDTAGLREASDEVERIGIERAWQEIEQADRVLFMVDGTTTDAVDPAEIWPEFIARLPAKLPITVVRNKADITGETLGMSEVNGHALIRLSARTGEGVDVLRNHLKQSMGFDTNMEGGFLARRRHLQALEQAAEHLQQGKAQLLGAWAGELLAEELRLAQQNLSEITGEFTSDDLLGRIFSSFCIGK

[5] = biological target: T1, MnmE (T434A and D440A); assay: ITC; MnmG in syringe, MnmE mutant in cell
[6] = biological target: T2, MnmE (Y169A, D175A and F176A); assay: ITC; MnmG in syringe, MnmE mutant in cell
[7] = biological target: T3, MnmE (Y169A, D175A and F176A) with …; assay: ITC; MnmG in syringe, MnmE mutant in cell
[8] = biological target: T4, MnmE from Escherichia coli, wild type (Escherichia coli, UniProt P25522 1-454); assay: ITC; 278 K; 20 mM Hepes pH 7.5, 150 mM NaCl, 5 mM MgCl2, 2 mM BME, 1 mM FAD; 15 uM in the cell, 300 uM in the syringe; titrated in both directions; one site model; apparent; conditions: both partners purified
T4 construct: tRNA modification GTPase MnmE (formerly TrmE), Escherichia coli; open reading frame cloned in a pET20 vector; Homodimer of about 50-kDa subunits; Used nucleotide-free, with GDP-AlFx or with GppNHp depending on the experiment; also called TrmE; MnmE wt
T4 sequence (looked up): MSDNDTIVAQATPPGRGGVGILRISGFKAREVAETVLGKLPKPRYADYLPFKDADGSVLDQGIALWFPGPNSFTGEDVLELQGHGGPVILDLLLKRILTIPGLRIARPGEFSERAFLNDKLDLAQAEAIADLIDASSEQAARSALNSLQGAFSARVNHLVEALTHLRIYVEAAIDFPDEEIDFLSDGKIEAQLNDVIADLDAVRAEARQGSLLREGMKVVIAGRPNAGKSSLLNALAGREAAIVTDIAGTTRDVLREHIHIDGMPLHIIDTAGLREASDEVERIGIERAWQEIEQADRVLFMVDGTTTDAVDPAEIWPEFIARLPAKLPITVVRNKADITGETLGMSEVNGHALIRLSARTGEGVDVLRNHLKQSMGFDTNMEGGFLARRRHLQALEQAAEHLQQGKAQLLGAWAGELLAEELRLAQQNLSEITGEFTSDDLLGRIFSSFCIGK

Kd [2]: 11.2 µM | Kd [3]: 12 µM | Kd [4]: 12.9 µM | Kd [5]: 9.4 µM | Kd [6]: 11.4 µM | Kd [7]: 29.9 µM | stoichiometry N [8]: 1
B1: MnmG from Escherichia coli, wild type (enzyme, UniProt P0A6U3 1-629, looked up)
chain: MFYPDPFDVIIIGGGHAGTEAAMAAARMGQQTLLLTHNIDTLGQMSCNPAIGGIGKGHLVKEVDALGGLMAKAIDQAGIQFRILNASKGPAVRATRAQADRVLYRQAVRTALENQPNLMIFQQAVEDLIVENDRVVGAVTQMGLKFRAKAVVLTVGTFLDGKIHIGLDNYSGGRAGDPPSIPLSRRLRELPLRVGRLKTGTPPRIDARTIDFSVLAQQHGDNPMPVFSFMGNASQHPQQVPCYITHTNEKTHDVIRSNLDRSPMYAGVIEGVGPRYCPSIEDKVMRFADRNQHQIFLEPEGLTSNEIYPNGISTSLPFDVQMQIVRSMQGMENAKIVRPGYAIEYDFFDPRDLKPTLESKFIQGLFFAGQINGTTGYEEAAAQGLLAGLNAARLSADKEGWAPARSQAYLGVLVDDLCTLGTKEPYRMFTSRAEYRLMLREDNADLRLTEIGRELGLVDDERWARFNEKLENIERERQRLKSTWVTPSAEAAAEVNAHLTAPLSREASGEDLLRRPEMTYEKLTTLTPFAPALTDEQAAEQVEIQVKYEGYIARQQDEIEKQLRNENTLLPATLDYRQVSGLSNEVIAKLNDHKPASIGQASRISGVTPAAISILLVWLKKQGMLRRSA
notes: tRNA uridine 5-carboxymethylaminomethyl modification enzyme MnmG (formerly GidA), Escherichia coli; open reading frame cloned in a pET14b vector; Homodimer of 70-kDa subunits; also called GidA; MnmG wt
stoichiometry N [1]: 2
